Measurements taken from paper PMC7311918.

Key:
Experiment in all cases: SEC-MALS
[1] = molecular target: HCoV-229E S 2P trimer (S ectodomain, residues 17-1113) (HCoV-229E) (UniProt P15423)
[2] = molecular target: HCoV-NL63 S 2P trimer (S ectodomain, residues 16-1291) (HCoV-NL63) (UniProt Q6Q1S2)
[3] = molecular target: HCoV-OC43 S 2P trimer (S ectodomain, residues 15-1263) (HCoV-OC43)

**Q.** “HCoV-229E S 2P trimer (S ectodomain, residues 17-1113) (from UniProt P15423 17-1113) (natural protein)” was tested. Which stoichiometry N [1] did it give?
**A.** The stoichiometry N was 3.

**Q.** Which stoichiometry N [2] does the source give for “HCoV-NL63 S 2P trimer (S ectodomain, residues 16-1291) (from UniProt Q6Q1S2 16-1291) (natural protein)” here?
**A.** Its stoichiometry N is 3.

**Q.** With “HCoV-OC43 S 2P trimer (S ectodomain, residues 15-1263) (natural protein)” as the substance, how does the stoichiometry N [3] read?
**A.** Its stoichiometry N is 3.
